Measured values taken from the supplement of paper PMC10065799, “High-throughput profiling of sequence recognition by tyrosine kinases and SH2 domains using bacterial peptide display” (eLife, 2023).

The sequences below were run against FGFR3 (UniProt P22607) (assay: phosphorylation enrichment, bacterial display (enrichment ratio); higher = better substrate or ligand; peptides without Tyr show the background).
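Further: 11-residue human phosphosite peptides and single-mutation variants displayed on the E. coli surface, counted by deep sequencing, each peptide's frequency after selection divided by its frequency in the unselected input library; frequency after pTyr selection over input frequency; kinase dosed for 20-30% of maximal phosphorylation in three min.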

FGFR3, sequence (P22607 whole entry, looked up): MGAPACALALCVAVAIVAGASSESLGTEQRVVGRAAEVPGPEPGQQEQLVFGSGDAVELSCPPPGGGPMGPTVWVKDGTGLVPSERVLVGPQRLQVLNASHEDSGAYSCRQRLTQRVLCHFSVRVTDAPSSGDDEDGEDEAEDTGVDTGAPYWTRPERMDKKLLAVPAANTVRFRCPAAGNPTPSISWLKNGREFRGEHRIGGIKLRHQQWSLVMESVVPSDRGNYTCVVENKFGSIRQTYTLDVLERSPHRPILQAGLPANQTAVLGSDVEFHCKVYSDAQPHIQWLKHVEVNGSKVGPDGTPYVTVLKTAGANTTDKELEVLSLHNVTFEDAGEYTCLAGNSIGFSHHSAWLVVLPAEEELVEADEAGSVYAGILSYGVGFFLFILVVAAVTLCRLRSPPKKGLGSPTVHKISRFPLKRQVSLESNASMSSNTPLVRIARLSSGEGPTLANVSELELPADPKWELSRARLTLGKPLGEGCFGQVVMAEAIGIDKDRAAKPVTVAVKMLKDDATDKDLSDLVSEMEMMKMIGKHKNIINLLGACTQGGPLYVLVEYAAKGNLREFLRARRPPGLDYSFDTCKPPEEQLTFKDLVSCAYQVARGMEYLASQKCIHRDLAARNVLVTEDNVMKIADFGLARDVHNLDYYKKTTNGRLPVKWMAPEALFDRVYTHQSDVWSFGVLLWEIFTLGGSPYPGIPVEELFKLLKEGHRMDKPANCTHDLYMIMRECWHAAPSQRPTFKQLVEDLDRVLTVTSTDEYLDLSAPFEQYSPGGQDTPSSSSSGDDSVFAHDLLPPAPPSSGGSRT

Row | Sequence | phosphorylation enrichment
1 | DRLASYRDKVR [KRT12_Y139_L140R] | 0.425
2 | ANYTEYVATSW [CDKL5_Y171_R175S] | 2.82
3 | VVKTVYSLQPS [KNSTRN_Y87_P92S] | 0.561
4 | QERPEYWDQET [HLA-A_Y83_G80R] | 0.915
5 | HLEKKYVHRDS [CSF1R_Y708_R710H] | 0.678
6 | RQSRNYLGGFA [SYK_Y47] | 0.386
7 | IDGLEYLHSQS [STK11_Y166_G171S] | 0.597
8 | ITVCDYTNPCP [MYD88_Y276_T281P] | 0.551
9 | STEPQYQPGEN [SRC_Y530] | 0.476
10 | SKHHLYSDLQT [PTCHD1_Y84_R82H] | 0.589
11 | KLIETYSSKNY [PLP1_Y50_F51S] | 0.619
12 | TLSGIYQFSIA [FOXL2_Y81_I84S_YF] | 0.952
13 | REETTYLPLTS [ICAM3_Y527_S525T] | 0.644
14 | APSHAYHGGVL [ANO1_Y981] | 0.427
15 | QGGRCYMMIVD [GAA_Y438_R437C] | 1.83
16 | NLPGGYSGSVK [MCPH1_Y606] | 0.425
17 | WRPFGYPHRRR [BCS1L_Y181_R183H] | 0.554
18 | KDDEKYLDVSR [MTM1_Y260_I264S] | 0.655
19 | AVLQLYIFVAT [CFTR_Y1014_P1013L] | 1.09
20 | GPRKAYELSQR [SETX_Y1297] | 0.355
21 | NDENIYKGLPD [VAV3_Y141_D139N] | 0.799
22 | RESVSYLFSHV [PRPS1_Y311_G306R] | 0.814
23 | EFSNQYKATIG [RAB7A_Y37_K32E] | 0.474
24 | ACDALYPPGPP | 0.522
25 | KSLFHYRQYSA [CPS1_Y1491] | 0.646
26 | VEDQYYRVDCY [FHL1_Y208_C209R] | 6.22
27 | TLARLYHRDST [LRIG1_Y1029_P1031R] | 0.729
28 | CTTIHYNDMCN [TP53_Y234_Y236D] | 0.539
29 | PPDGEYFTLQI [TP53_Y327_L323P] | 10.2

The sequences below were run against MERTK (UniProt Q12866) in the same assay as above.
MERTK, sequence (Q12866 whole entry, looked up): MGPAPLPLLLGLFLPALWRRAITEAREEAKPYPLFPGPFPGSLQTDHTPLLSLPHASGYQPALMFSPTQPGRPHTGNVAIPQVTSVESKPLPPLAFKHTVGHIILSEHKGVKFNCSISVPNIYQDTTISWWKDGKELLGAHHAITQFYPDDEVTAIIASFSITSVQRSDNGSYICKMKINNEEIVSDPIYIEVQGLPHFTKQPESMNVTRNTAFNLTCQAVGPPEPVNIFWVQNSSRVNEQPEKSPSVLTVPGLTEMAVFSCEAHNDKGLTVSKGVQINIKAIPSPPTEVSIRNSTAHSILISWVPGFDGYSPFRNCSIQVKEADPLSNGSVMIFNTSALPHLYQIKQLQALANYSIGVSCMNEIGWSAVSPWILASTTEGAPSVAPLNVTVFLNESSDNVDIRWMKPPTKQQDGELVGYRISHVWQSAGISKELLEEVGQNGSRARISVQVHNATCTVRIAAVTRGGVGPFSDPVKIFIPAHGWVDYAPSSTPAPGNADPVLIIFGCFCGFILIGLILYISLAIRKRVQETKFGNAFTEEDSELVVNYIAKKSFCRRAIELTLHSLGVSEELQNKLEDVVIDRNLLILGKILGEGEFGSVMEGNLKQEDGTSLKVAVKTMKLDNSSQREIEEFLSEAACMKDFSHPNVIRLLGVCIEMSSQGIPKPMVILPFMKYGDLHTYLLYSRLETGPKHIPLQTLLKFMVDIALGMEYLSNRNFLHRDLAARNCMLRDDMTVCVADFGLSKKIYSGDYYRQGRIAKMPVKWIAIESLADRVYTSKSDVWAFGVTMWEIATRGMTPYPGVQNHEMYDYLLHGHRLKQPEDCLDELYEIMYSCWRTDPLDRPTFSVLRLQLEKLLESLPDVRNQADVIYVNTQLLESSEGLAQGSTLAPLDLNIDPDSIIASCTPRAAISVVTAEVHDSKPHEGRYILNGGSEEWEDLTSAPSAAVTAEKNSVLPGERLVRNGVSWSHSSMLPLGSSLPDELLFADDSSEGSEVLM

Row | Sequence | phosphorylation enrichment
30 | DRLASYRDKVR [KRT12_Y139_L140R] | 0.332
31 | ANYTEYVATSW [CDKL5_Y171_R175S] | 0.815
32 | VVKTVYSLQPS [KNSTRN_Y87_P92S] | 1.42
33 | QERPEYWDQET [HLA-A_Y83_G80R] | 0.566
34 | HLEKKYVHRDS [CSF1R_Y708_R710H] | 0.438
35 | RQSRNYLGGFA [SYK_Y47] | 1.75
36 | IDGLEYLHSQS [STK11_Y166_G171S] | 0.325
37 | ITVCDYTNPCP [MYD88_Y276_T281P] | 0.333
38 | STEPQYQPGEN [SRC_Y530] | 0.356
39 | SKHHLYSDLQT [PTCHD1_Y84_R82H] | 2.23
40 | KLIETYSSKNY [PLP1_Y50_F51S] | 0.539
41 | TLSGIYQFSIA [FOXL2_Y81_I84S_YF] | 6
42 | REETTYLPLTS [ICAM3_Y527_S525T] | 0.901
43 | APSHAYHGGVL [ANO1_Y981] | 0.381
44 | QGGRCYMMIVD [GAA_Y438_R437C] | 0.928
45 | NLPGGYSGSVK [MCPH1_Y606] | 0.371
46 | WRPFGYPHRRR [BCS1L_Y181_R183H] | 0.505
47 | KDDEKYLDVSR [MTM1_Y260_I264S] | 0.423
48 | AVLQLYIFVAT [CFTR_Y1014_P1013L] | 0.498
49 | GPRKAYELSQR [SETX_Y1297] | 0.409
50 | NDENIYKGLPD [VAV3_Y141_D139N] | 0.542
51 | RESVSYLFSHV [PRPS1_Y311_G306R] | 0.492
52 | EFSNQYKATIG [RAB7A_Y37_K32E] | 0.342
53 | ACDALYPPGPP | 0.43
54 | KSLFHYRQYSA [CPS1_Y1491] | 0.469
55 | VEDQYYRVDCY [FHL1_Y208_C209R] | 0.94
56 | TLARLYHRDST [LRIG1_Y1029_P1031R] | 0.522
57 | CTTIHYNDMCN [TP53_Y234_Y236D] | 0.396
58 | PPDGEYFTLQI [TP53_Y327_L323P] | 0.902

What follows are sequences tested against EPHB2 (UniProt P29323) in the same assay as above.
EPHB2, sequence (P29323 whole entry, looked up): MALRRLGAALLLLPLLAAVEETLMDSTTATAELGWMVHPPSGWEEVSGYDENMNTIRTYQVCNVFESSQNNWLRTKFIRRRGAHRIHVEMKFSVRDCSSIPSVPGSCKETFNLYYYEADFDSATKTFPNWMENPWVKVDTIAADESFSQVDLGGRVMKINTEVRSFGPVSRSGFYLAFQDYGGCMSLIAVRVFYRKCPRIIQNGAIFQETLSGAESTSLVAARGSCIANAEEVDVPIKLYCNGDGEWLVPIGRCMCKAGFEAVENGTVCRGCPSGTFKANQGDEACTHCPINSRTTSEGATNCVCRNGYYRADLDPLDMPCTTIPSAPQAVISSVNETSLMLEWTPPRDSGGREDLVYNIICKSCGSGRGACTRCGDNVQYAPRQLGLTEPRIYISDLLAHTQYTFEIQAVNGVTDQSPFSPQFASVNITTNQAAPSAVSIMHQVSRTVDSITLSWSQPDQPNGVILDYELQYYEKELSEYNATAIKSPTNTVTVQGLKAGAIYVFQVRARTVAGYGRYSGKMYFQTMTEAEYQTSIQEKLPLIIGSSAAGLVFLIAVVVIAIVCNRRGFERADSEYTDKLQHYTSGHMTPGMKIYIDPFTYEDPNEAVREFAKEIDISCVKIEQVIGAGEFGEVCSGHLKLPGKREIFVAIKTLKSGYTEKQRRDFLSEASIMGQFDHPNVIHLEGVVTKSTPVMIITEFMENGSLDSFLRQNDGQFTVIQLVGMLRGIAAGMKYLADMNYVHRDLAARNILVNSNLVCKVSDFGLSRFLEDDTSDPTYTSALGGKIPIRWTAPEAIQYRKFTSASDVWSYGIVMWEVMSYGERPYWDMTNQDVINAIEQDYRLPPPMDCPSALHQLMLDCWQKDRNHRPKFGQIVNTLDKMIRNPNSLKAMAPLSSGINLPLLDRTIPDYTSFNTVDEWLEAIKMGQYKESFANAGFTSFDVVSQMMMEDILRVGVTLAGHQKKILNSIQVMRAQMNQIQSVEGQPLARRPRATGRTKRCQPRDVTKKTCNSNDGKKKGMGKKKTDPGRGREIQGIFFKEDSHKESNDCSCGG

Row | Sequence | phosphorylation enrichment
59 | DRLASYRDKVR [KRT12_Y139_L140R] | 0.338
60 | ANYTEYVATSW [CDKL5_Y171_R175S] | 8.89
61 | VVKTVYSLQPS [KNSTRN_Y87_P92S] | 0.455
62 | QERPEYWDQET [HLA-A_Y83_G80R] | 0.702
63 | HLEKKYVHRDS [CSF1R_Y708_R710H] | 0.314
64 | RQSRNYLGGFA [SYK_Y47] | 0.56
65 | IDGLEYLHSQS [STK11_Y166_G171S] | 0.549
66 | ITVCDYTNPCP [MYD88_Y276_T281P] | 0.482
67 | STEPQYQPGEN [SRC_Y530] | 0.566
68 | SKHHLYSDLQT [PTCHD1_Y84_R82H] | 0.389
69 | KLIETYSSKNY [PLP1_Y50_F51S] | 0.759
70 | TLSGIYQFSIA [FOXL2_Y81_I84S_YF] | 1.05
71 | REETTYLPLTS [ICAM3_Y527_S525T] | 0.548
72 | APSHAYHGGVL [ANO1_Y981] | 0.336
73 | QGGRCYMMIVD [GAA_Y438_R437C] | 1.29
74 | NLPGGYSGSVK [MCPH1_Y606] | 0.455
75 | WRPFGYPHRRR [BCS1L_Y181_R183H] | 0.461
76 | KDDEKYLDVSR [MTM1_Y260_I264S] | 0.556
77 | AVLQLYIFVAT [CFTR_Y1014_P1013L] | 0.599
78 | GPRKAYELSQR [SETX_Y1297] | 0.328
79 | NDENIYKGLPD [VAV3_Y141_D139N] | 0.644
80 | RESVSYLFSHV [PRPS1_Y311_G306R] | 0.901
81 | EFSNQYKATIG [RAB7A_Y37_K32E] | 0.413
82 | ACDALYPPGPP | 0.432
83 | KSLFHYRQYSA [CPS1_Y1491] | 0.602
84 | VEDQYYRVDCY [FHL1_Y208_C209R] | 0.712
85 | TLARLYHRDST [LRIG1_Y1029_P1031R] | 0.539
86 | CTTIHYNDMCN [TP53_Y234_Y236D] | 0.528
87 | PPDGEYFTLQI [TP53_Y327_L323P] | 1.14

What follows are sequences tested on AncSZ in the same assay as above.

Row | Sequence | phosphorylation enrichment
88 | DRLASYRDKVR [KRT12_Y139_L140R] | 0.466
89 | ANYTEYVATSW [CDKL5_Y171_R175S] | 1.34
90 | VVKTVYSLQPS [KNSTRN_Y87_P92S] | 0.648
91 | QERPEYWDQET [HLA-A_Y83_G80R] | 1.81
92 | HLEKKYVHRDS [CSF1R_Y708_R710H] | 0.615
93 | RQSRNYLGGFA [SYK_Y47] | 0.841
94 | IDGLEYLHSQS [STK11_Y166_G171S] | 0.953
95 | ITVCDYTNPCP [MYD88_Y276_T281P] | 1.49
96 | STEPQYQPGEN [SRC_Y530] | 0.825
97 | SKHHLYSDLQT [PTCHD1_Y84_R82H] | 0.487
98 | KLIETYSSKNY [PLP1_Y50_F51S] | 0.649
99 | TLSGIYQFSIA [FOXL2_Y81_I84S_YF] | 1.31
100 | REETTYLPLTS [ICAM3_Y527_S525T] | 1.39
101 | APSHAYHGGVL [ANO1_Y981] | 0.52
102 | QGGRCYMMIVD [GAA_Y438_R437C] | 2.31
103 | NLPGGYSGSVK [MCPH1_Y606] | 0.595
104 | WRPFGYPHRRR [BCS1L_Y181_R183H] | 0.622
105 | KDDEKYLDVSR [MTM1_Y260_I264S] | 0.951
106 | AVLQLYIFVAT [CFTR_Y1014_P1013L] | 1.3
107 | GPRKAYELSQR [SETX_Y1297] | 0.464
108 | NDENIYKGLPD [VAV3_Y141_D139N] | 1.34
109 | RESVSYLFSHV [PRPS1_Y311_G306R] | 1
110 | EFSNQYKATIG [RAB7A_Y37_K32E] | 0.455
111 | ACDALYPPGPP | 0.774
112 | KSLFHYRQYSA [CPS1_Y1491] | 0.778
113 | VEDQYYRVDCY [FHL1_Y208_C209R] | 2.93
114 | TLARLYHRDST [LRIG1_Y1029_P1031R] | 0.761
115 | CTTIHYNDMCN [TP53_Y234_Y236D] | 1.03
116 | PPDGEYFTLQI [TP53_Y327_L323P] | 3.41
